According to article PMC5457521 (Nature Communications, 2017):

B1: anti-EDE2 mAb 747(4)B7, human IgG (antibody, V domains shown)
VH: EVQLVESGGGLVQPGGSLKLSCAASGFTFSSHWMHWVRQAPGKGLVWVSRTNSDGSSTSYADSVKGRFMISRDNSKNTVYLHMNGLRAEDTAVYFCARDGVRYYYDSTGYYPDNFFQYGLDVWGQGTTVTVSS
VL: QSALTQPASVSGSPGQSITISCTGISSDVETYNLVSWYEQHPGKAPKLIIYEASKRPSGVSNRFSGSKSGNTASLAISGLQAEDEADYYCCSYAGGKSLVFGGGTRLTVL
B2: anti-EDE2 mAb 747(4)A11, human IgG (antibody, V domains shown)
VH: EVQLVESGGGLVRPGGSLRLSCAASGFSYSNHWMHWVRQAPGKGLVWVSRINSDGSTRNYADFVKGRFTISRDNAENTLYLEMNSLTADDTAVYYCVRDGVRFYYDSTGYYPDSFFKYGMDVWGQGTTVTVSS
VL: QSVLTQPVSVSGSPGQSITISCTGTSSNADTYNLVSWYQQRPGKAPKLMIYEGTKRPSGVSNRFSASKSATAASLTISGLQPEDEADYYCCSYATSRTLVFGGGTKLTVV
B3: anti-EDE2 Fab A11 (Fab of human mAb 747(4)A11) (Fab, V domains shown)
VH: B2 VH
VL: B2 VL

Key:
[1] = biological target: T1, DENV2 sE strain FGA02, wild type (recombinant E ectodomain) (Dengue virus 2, strain FGA-02 …, strain); experiment: ELISA; capture ELISA: mAb coated at 5 μg ml^−1 on MAXISORP plates; serial dilutions of Strep-tagged sE in solution; ALP-labelled Strep-Tactin; conditions: one partner purified
T1 construct: also called sE WT; DENV2 FGA02 WT

[2] = biological target: T1, DENV2 sE strain FGA02, wild type …; experiment: SEC-MALS; mixture of 150 μg DENV2 FGA02 sE with 300 μg Fab, Superdex 200 10/300 GL, run in a similar manner as sE alone; conditions: both partners purified

| Binder | binding result [1] | binding result [2] |
| --- | --- | --- |
| B1 | binds | – |
| B2 | binds | – |
| B3 | – | binds |
